We go through two substances from doi:10.1101/2025.10.20.683367.

A word on the stoichiometry N: it is the number of molecules, sites or subunits per partner or assembly.

Test [1] concerns the target Methanoculleus sp. schizorhodopsin (Methanoculleus sp. (metagenome-assembled genome)). Description: cryo-EM structure.
For test [2], the target named is Methanoculleus taiwanensis schizorhodopsin (Methanoculleus taiwanensis). Description: cryo-EM structure.

For “Methanoculleus sp. schizorhodopsin (natural protein)”, the stoichiometry N in test [1] was determined as 3.
In the case of “Methanoculleus taiwanensis schizorhodopsin (natural protein)”, the stoichiometry N in test [2] came to 3.
